Like-named read-outs stand apart in the source and are kept apart here.
Experiments:
Experiment in all cases: ITC
[1] = target: T1, EGR1 DB_WT (Zif268 DNA-binding domain) (human, UniProt P18146 331-430)
[2] = target: T1, EGR1 DB_WT (Zif268 DNA-binding domain); remark: listed apart in the source
[3] = target: T1, EGR1 DB_WT (Zif268 DNA-binding domain); remark: listed apart in the source
[4] = target: T1, EGR1 DB_WT (Zif268 DNA-binding domain); remark: listed apart in the source
[5] = target: T1, EGR1 DB_WT (Zif268 DNA-binding domain); remark: listed apart in the source
[6] = target: T1, EGR1 DB_WT (Zif268 DNA-binding domain); remark: listed apart in the source
[7] = target: T1, EGR1 DB_WT (Zif268 DNA-binding domain); remark: listed apart in the source
[8] = target: T1, EGR1 DB_WT (Zif268 DNA-binding domain); remark: listed apart in the source
[9] = target: T1, EGR1 DB_WT (Zif268 DNA-binding domain); remark: listed apart in the source
EGR1 DB_H382E = EGR1 DB_H382E (human, UniProt P18146 331-430, H382E)
EGR1 DB_H382A = EGR1 DB_H382A (human, UniProt P18146 331-430, H382A)
EGR1 DB_H382K = EGR1 DB_H382K (human, UniProt P18146 331-430, H382K)
EGR1 DB_H382R = EGR1 DB_H382R (human, UniProt P18146 331-430, H382R)
[10] = target: T1, EGR1 DB_WT (Zif268 DNA-binding domain); remark: listed apart in the source

B1: ZRE duplex (15-mer) (dsDNA)
DNA 1: ATAGCGTGGGCGTTT
DNA 2: AAACGCCCACGCTAT
- Kd [1]: 0.345 µM
- Kd [2]: 0.324 µM
- Kd [3]: 0.758 µM
- Kd [4]: 0.314 µM
- Kd [5]: 0.266 µM
- Kd [6]: 0.421 µM
- Kd [7]: 0.755 µM
- Kd [8]: 1.03 µM
- Kd [9]: 1.33 µM
- Kd (EGR1 DB_H382E): 2.3 µM
- Kd (EGR1 DB_H382A): 1.61 µM
- Kd (EGR1 DB_H382K): 2.26 µM
- Kd (EGR1 DB_H382R): 2.04 µM
- Kd [10]: 0.271 µM

From PMC3896865
